T1: rNPR1-ANP complex (rat, UniProt P01160 124-151 (human entry), limits assumed)
T1 construct: rNPR1 antigen in the presence of ANP; also called rNPR1 + 100 nM ANP
T1 sequence: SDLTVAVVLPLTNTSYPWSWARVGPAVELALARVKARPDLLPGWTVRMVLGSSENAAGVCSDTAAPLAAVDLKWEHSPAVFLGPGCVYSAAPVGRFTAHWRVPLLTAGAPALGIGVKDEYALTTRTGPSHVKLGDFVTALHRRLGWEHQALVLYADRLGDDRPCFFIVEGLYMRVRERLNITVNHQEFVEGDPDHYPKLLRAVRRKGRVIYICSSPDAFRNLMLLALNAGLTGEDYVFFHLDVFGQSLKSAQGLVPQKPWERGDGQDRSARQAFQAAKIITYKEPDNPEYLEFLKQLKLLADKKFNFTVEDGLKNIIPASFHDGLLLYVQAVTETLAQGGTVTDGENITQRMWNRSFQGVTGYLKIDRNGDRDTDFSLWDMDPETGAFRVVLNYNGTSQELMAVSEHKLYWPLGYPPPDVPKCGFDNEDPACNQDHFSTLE
T1 sequence (peptide): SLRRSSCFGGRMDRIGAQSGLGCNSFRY

T2: rat NPR1 (rNPR1) (rat, UniProt P18910 29-469, limits assumed)
T2 construct: Soluble antigen
T2 sequence: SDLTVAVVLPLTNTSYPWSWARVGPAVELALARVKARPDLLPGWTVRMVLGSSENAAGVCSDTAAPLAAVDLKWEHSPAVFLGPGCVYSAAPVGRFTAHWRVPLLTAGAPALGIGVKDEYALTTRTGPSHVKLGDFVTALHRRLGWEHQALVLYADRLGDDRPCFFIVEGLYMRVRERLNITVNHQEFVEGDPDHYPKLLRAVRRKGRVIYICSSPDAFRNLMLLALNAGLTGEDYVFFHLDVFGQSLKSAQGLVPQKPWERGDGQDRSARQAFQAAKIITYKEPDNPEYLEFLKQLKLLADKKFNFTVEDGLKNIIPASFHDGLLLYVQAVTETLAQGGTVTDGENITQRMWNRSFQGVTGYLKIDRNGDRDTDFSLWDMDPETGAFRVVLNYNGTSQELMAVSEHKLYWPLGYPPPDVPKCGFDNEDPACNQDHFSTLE

T3: human NPR3 (counter target) (human, UniProt P17342 27-481, limits assumed)
T3 construct: Pannings used hNPR3-hFc; also called hNPR3; hNPR3-hFc
T3 sequence (looked up): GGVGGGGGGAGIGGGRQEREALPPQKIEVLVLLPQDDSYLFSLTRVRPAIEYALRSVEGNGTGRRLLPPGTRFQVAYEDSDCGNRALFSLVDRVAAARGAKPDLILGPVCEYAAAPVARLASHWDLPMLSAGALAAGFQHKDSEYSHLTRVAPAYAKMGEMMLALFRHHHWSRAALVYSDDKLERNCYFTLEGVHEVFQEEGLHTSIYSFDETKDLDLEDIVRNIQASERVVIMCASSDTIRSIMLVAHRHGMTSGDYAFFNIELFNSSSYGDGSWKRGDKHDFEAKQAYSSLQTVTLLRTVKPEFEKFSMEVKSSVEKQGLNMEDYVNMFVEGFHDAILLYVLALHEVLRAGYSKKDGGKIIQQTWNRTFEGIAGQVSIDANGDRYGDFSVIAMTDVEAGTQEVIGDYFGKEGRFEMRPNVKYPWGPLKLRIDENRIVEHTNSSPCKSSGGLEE

T4: human NPR3 in the presence of ANP (human, UniProt P17342 27-481; P01160 124-151, limits assumed)
T4 construct: also called hNPR3 + 100 nM ANP
T4 sequence (looked up): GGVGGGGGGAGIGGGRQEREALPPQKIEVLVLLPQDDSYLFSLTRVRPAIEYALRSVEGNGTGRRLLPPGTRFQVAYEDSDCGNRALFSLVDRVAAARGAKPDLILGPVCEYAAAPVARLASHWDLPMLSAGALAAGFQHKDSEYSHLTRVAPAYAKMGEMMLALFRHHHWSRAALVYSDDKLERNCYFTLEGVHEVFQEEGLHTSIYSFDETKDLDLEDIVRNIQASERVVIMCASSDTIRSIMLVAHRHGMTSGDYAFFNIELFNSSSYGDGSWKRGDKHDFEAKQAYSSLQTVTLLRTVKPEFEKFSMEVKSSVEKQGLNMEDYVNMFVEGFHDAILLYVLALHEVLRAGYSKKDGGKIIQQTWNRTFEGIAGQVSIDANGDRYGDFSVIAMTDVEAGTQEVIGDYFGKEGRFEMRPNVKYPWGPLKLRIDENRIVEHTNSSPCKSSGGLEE
T4 sequence (peptide, looked up): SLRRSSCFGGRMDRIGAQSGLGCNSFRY

T5: rNPR1-ANP complex (rat)
T5 sequence: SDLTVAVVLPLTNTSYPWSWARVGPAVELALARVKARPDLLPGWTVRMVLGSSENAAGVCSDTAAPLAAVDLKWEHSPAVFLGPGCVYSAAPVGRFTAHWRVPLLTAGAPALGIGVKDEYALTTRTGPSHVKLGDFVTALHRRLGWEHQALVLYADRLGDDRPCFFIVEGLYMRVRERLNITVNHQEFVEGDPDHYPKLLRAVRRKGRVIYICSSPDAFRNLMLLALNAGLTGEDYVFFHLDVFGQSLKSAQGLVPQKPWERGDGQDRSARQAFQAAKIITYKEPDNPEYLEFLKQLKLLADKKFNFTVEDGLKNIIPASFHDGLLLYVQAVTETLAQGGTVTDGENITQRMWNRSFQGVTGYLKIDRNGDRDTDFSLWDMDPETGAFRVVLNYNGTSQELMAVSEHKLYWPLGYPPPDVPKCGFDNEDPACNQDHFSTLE
T5 sequence (peptide): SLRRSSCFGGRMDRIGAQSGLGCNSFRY

T6: hNPR1-ANP complex (human, UniProt P01160 124-151, limits assumed)
T6 construct: hNPR1 antigen in the presence of ANP; also called hNPR1 + 100 nM ANP
T6 sequence: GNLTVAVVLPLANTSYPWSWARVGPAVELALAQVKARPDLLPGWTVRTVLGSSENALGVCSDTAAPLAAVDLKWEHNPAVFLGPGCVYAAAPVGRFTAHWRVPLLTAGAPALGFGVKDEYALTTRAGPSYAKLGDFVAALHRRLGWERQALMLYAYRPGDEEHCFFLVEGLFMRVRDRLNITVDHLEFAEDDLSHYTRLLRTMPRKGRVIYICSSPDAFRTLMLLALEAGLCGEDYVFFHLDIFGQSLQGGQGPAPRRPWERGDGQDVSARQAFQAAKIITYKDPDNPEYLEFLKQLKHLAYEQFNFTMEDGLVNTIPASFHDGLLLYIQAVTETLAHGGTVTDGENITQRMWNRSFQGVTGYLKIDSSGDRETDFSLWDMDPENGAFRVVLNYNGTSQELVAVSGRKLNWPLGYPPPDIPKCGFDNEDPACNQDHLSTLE
T6 sequence (peptide): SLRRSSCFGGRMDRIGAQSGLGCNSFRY


Key:
rNPR1-ANP complex [1] = biological target: T1, rNPR1-ANP complex; assay: ELISA, 1 µM IgG; design: unit not given here
rat NPR1 (rNPR1) = biological target: T2, rat NPR1 (rNPR1); assay: ELISA, IgG titrated on coated antigen, fluorescence [Cont.]
[2] = biological target: T3, human NPR3 (counter target); assay: as above
rNPR1-ANP complex [3] = biological target: T1, rNPR1-ANP complex; assay: ELISA, IgG titrated on coated antigen with ANP (250 fold molar excess), fluorescence [Cont.]
[4] = biological target: T4, human NPR3 in the presence of ANP; assay: as above
rNPR1-ANP complex (rat) = biological target: T5, rNPR1-ANP complex (rat); assay: ELISA, 1 µM IgG
hNPR1-ANP complex = biological target: T6, hNPR1-ANP complex; assay: ELISA, IgG titrated on coated antigen with ANP (250 fold molar excess), fluorescence [Cont.]

Binder | ELISA binding at 1 µM IgG (rNPR1-ANP complex [1]) | binding result (rat NPR1 (rNPR1)) | binding result [2] | binding result (rNPR1-ANP complex [3]) | binding result [4] | ELISA binding at 1 µM IgG (rNPR1-ANP complex (rat)) | EC50 (read off the curve) (hNPR1-ANP complex) [nM]
YY07 (IgG format) (antibody, V domains shown, also called YY07_LALA) VH: EVQLVQSGAEVKKPGESLKISCKGSGYSFTSYWISWVRQMPGKGLEWMGIIYPGTSYTRYSPSFQGQVTISADKSISTAYLQWSSLKASDTAMYYCARGSLPGLLGFDHWGQGTLVTVSS VL: QSVLTQPPSVSGAPGQRVTISCTGSSSNIGAGYDVHWYQQLPGTAPKLLIYGNSNRPNGVPDRFSGSKSGTSASLAITGLQAEDEADYYCQSYDSPTSSSVFGGGTKLTVLG | 3 | no binding (tested: 1000 nM) | no binding (tested: 1000 nM) | no binding (tested: 1000 nM) | no binding (tested: 1000 nM) | – | –
YY06 (IgG format) (antibody, V domains shown, also called YY06_LALA) VH: EVQLLESGGGLVQPGGSLRLSCAASGFTFSSYAISWVRQAPGKGLEWVSAISGSGGSTYYAESVKGRFTISRDNSKNTLYLQMNSLRAEDTAVYYCARPYLGDRRSYGFDHWGQGTLVTVSS VL: QSALTQPASVSGSPGQSITISCTGTSSDVGSYNLVSWYQQHPGKAPKLMIYEGSKRPSGVSNRFSGSKSGNTASLTISGLQAEDEADYYCSSYGFHIVVVVFGGGTKLTVLG | – | – | – | – | – | 4 | ~7

From patent publication US20240052042A1 (Novartis, published 2024)
